Blades of the disk (one of them taken to be NAIP2) data for one substance are collected here from paper PMC4640189.

The target in the assay is CARD-deleted NLRC4 (mouse) (UniProt Q3UP24). Kind of assay: cryo-EM structure.

Values joined by “and” are separate entries in the source; they are usually repeats but may differ in a detail not shown here. Equal entries are not always repeated.

For “CARD-deleted NLRC4 (from UniProt Q3UP24 1-1024) (domain or fragment)”, the blades of the disk (one of them taken to be NAIP2) is 11 blades and 12 blades and 10 blades.
